# Source: publication PMC11134965
# Columns and labels:
# [1] = target: chicken nesfatin-1 (chicken (Gallus gallus)); test: AUC; sedimentation velocity, 20 °C, 50,000 rpm, buffer B1 (20 mM Tris-HCl pH 7.5, 150 mM NaCl) with 500 µM ZnCl2; gN1 at 0.7, 1.0, 1.3 mg/ml; c(s) model
# [2] = target: chicken nesfatin-1 (chicken (Gallus gallus)); test: AUC; sedimentation velocity, 20 °C, 50,000 rpm, buffer B1 (20 mM Tris-HCl pH 7.5, 150 mM NaCl) with 50 µM Zn(II); gN1/2 at 0.92, 1.32, 1.85 mg/ml, gN1 (Table S1); c(s) model
# [3] = target: chicken nesfatin-1/2 (nesfatin-1 and nesfatin-2 conjoined in a head-to-tail manner) (chicken (Gallus gallus)); test: as above
Substance,"relative abundance of the second sedimenting species (2.59 S) at 1.0 mg/ml, 500 µM Zn(II) [1] [%]","relative abundance of the second sedimenting species (2.60 S) at 0.7 mg/ml, 500 µM Zn(II) [1] [%]","relative abundance of the second sedimenting species (2.63 S) at 1.3 mg/ml, 500 µM Zn(II) [1] [%]",stoichiometry N [1],"relative abundance of the second sedimenting species (2.16 S), 50 µM Zn(II) [2] [%]","relative abundance of the second sedimenting species (3.43 S) at 1.85 mg/ml, 50 µM Zn(II) [3] [%]","relative abundance of the second sedimenting species (3.49 S) at 0.92 mg/ml, 50 µM Zn(II) [3] [%]","relative abundance of the second sedimenting species (3.64 S) at 1.32 mg/ml, 50 µM Zn(II) [3] [%]",stoichiometry N [3]
chicken nesfatin-1 (peptide),51,44,51,2,17,–,–,–,–
chicken nesfatin-1/2 (nesfatin-1 and nesfatin-2 conjoined in a head-to-tail manner) (domain or fragment),–,–,–,–,–,13,13,15,2
